77 sequences from the supplement of paper PMC7877785 can be followed below.

± gives the uncertainty stated by the source.

The series is described as follows: self-splicing fitness, log relative to wild type (ln ratio); higher = more splicing; Tetrahymena group I intron in knt gene, E. coli kanamycin selection, DiMSum; sequences stand for … in CUCUCU…GGAGGGAAAAGUUAUCAGGCAUGCACCUGGUAGCUAGUCUUUAAACCAAUAGAUUGCAUCGGUUUAAAAGGCAAGACCGUCAAAUUGCGGGAAAGGGGUCAACAGCCGUUCAGUACCAAGUCUCAGGGGAAACUUUGAGAUGGCCUUGCAAAGGGUAUGGUAAUAAGCUGACGGACAUGGUCCUAACCACGCAGCCAAGUCCUAAGUCAACAGAUCUUCUGUUGAUAUGGAUGCAGUUCACAGACUAAAUGUCGGUCGGGGAAGAUGUAUUCUUCUCAUAAGAUAUAGUCGGACCUCUCCUUAAUGGGAGCUAGCGGAUGAAGUGAUGCAACACUGGAGCCGCUGGGAACUAAUUUGUAUGCGAAAGUAUAUUGAUUAGUUUUGGAGUACUCGUGGUCG
The essentials:
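A randomised library covering all eight P1ex-region intron nucleotides was built with the intron in the knt kanamycin-resistance gene on pET-22b(+) and held in E. coli BL21(DE3). Cells were grown overnight at 37°C or 30°C on LB agar, with or without 25 μg/mL kanamycin, plus 100 μg/mL carbenicillin, 50 μM IPTG and 0.2% rhamnose, and pooled colonies were amplicon-sequenced on an Illumina HiSeq 2500. DiMSum fitness is the error-weighted combination of wild-type-normalised replicate fold changes, kanamycin versus none.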

Turning to UGUAAGCAAUAUUACGGGAA, the “self-splicing fitness (ln)” value reads like this: (30 °C) -2.12 ± 0.17; (37 °C) -2.08 ± 0.18.

As for UUAGAGCAAUAUUACGGCCG, the “self-splicing fitness (ln)” value was -0.608 ± 0.15 (30 °C) and -0.234 ± 0.23 (37 °C). The like results for CGAAAGCAAUAUUACGGGGG were, in that order, -2.85 ± 0.14 and -1.96 ± 0.13. As to AAUUAGCAAUAUUACGCUCG, the “self-splicing fitness (ln)” value runs as follows: (30 °C) 0.0366 ± 0.13; (37 °C) 0.217 ± 0.16. With UUCAAGCAAUAUUACGCAGC, the “self-splicing fitness (ln)” value (30 °C) was -1.85 ± 0.16 and the “self-splicing fitness (ln)” value (37 °C) was -2.72 ± 0.31. On to GAGGAGCAAUAUUACGUGGC, for which, for the setting “30 °C”, the “self-splicing fitness (ln)” value is -3.34 ± 0.24. Consider AGAUAGCAAUAUUACGCUAA, for which the “self-splicing fitness (ln)” value (30 °C) was -1.46 ± 0.15 and the “self-splicing fitness (ln)” value (37 °C) was -0.455 ± 0.15. With CUCAAGCAAUAUUACGGCUC, the “self-splicing fitness (ln)” value reads like this: (30 °C) -3.53 ± 0.26; (37 °C) -1.34 ± 0.21.

With GCGUAGCAAUAUUACGCUGG, the “self-splicing fitness (ln)” value by setting is: (30 °C) -2 ± 0.18; (37 °C) -2.12 ± 0.32.

Take CCCAAGCAAUAUUACGUUCG: the “self-splicing fitness (ln)” value by setting is: (30 °C) -2.11 ± 0.14; (37 °C) -2.49 ± 0.2.

Turning to CGCUAGCAAUAUUACGUAGG, the “self-splicing fitness (ln)” value is -1.4 ± 0.058 (30 °C) and -0.925 ± 0.081 (37 °C).

Regarding UCGUAGCAAUAUUACGAGCG, the “self-splicing fitness (ln)” value by setting is: (30 °C) -0.988 ± 0.14; (37 °C) -1.13 ± 0.21. As for GUCCAGCAAUAUUACGCAUG, the “self-splicing fitness (ln)” value is -2.14 ± 0.079 (30 °C) and -1.66 ± 0.082 (37 °C). The like results for UGGUAGCAAUAUUACGCGGA were, in that order, -1.86 ± 0.15 and -0.911 ± 0.17. The like results for GAGAAGCAAUAUUACGACAA were, in that order, -0.787 ± 0.1 and -0.365 ± 0.12. On the same counts, the results for AACGAGCAAUAUUACGCACG are -2.8 ± 0.38 and -0.837 ± 0.25. Take UGGAAGCAAUAUUACGGCUA: the “self-splicing fitness (ln)” value is -0.499 ± 0.14 (30 °C) and -0.0289 ± 0.23 (37 °C). With AAAAAGCAAUAUUACGAGUG, the “self-splicing fitness (ln)” value is -1.35 ± 0.088 (30 °C) and -1.18 ± 0.09 (37 °C). On the same counts, the results for GCCUAGCAAUAUUACGCUCG are -2.7 ± 0.2 and -2.06 ± 0.3. The like results for UGGAAGCAAUAUUACGCGCA were, in that order, -0.534 ± 0.13 and 0.365 ± 0.13.

In the case of CAUUAGCAAUAUUACGUACA, the “self-splicing fitness (ln)” value (30 °C) was -2.7 ± 0.21 and the “self-splicing fitness (ln)” value (37 °C) was -2.58 ± 0.2. As for CCCAAGCAAUAUUACGGAAG, the “self-splicing fitness (ln)” value was -2.89 ± 0.16 (30 °C) and -1.48 ± 0.15 (37 °C). In the case of CGUGAGCAAUAUUACGGGAU, the “self-splicing fitness (ln)” value is -3.49 ± 0.22 (30 °C) and -2.24 ± 0.21 (37 °C). On to CCCUAGCAAUAUUACGUCGA, for which the “self-splicing fitness (ln)” value was -3.58 ± 0.21 (30 °C) and -2.51 ± 0.19 (37 °C). For UGUGAGCAAUAUUACGCUUU, the “self-splicing fitness (ln)” value reads like this: (30 °C) -3.5 ± 0.33; (37 °C) -3.83 ± 0.33. Regarding ACCGAGCAAUAUUACGGAGA, the “self-splicing fitness (ln)” value was -1.34 ± 0.29 (30 °C) and -1.48 ± 0.28 (37 °C). The like results for GUCAAGCAAUAUUACGCGCA were, in that order, -0.483 ± 0.097 and -0.0303 ± 0.11.

Regarding CCCUAGCAAUAUUACGGGGU, the “self-splicing fitness (ln)” value reads like this: (30 °C) -2.49 ± 0.092; (37 °C) -2.91 ± 0.12. In the case of UACGAGCAAUAUUACGGGGG, the “self-splicing fitness (ln)” value is -4.08 ± 0.29 (30 °C) and -3.14 ± 0.34 (37 °C).

Take UCCUAGCAAUAUUACGGGUC: the “self-splicing fitness (ln)” value (30 °C) was -3.81 ± 0.22 and the “self-splicing fitness (ln)” value (37 °C) is -2.71 ± 0.28. As to GACCAGCAAUAUUACGCUAC, the “self-splicing fitness (ln)” value (37 °C) is -2.47 ± 0.3.

For the sequence GCGCAGCAAUAUUACGAUCC, the “self-splicing fitness (ln)” value is -0.589 ± 0.15 (30 °C) and 0.707 ± 0.24 (37 °C). For UCCAAGCAAUAUUACGGAGC, the “self-splicing fitness (ln)” value runs as follows: (30 °C) -3.35 ± 0.37; (37 °C) -2.44 ± 0.26. On the same counts, the results for CGGCAGCAAUAUUACGCGAU are -2.36 ± 0.19 and -1.4 ± 0.25. Consider CGAAAGCAAUAUUACGGCAC, for which the “self-splicing fitness (ln)” value was -2.6 ± 0.15 (30 °C) and 0.387 ± 0.21 (37 °C). On the same counts, the results for CAAUAGCAAUAUUACGCUGU are -3.13 ± 0.17 and -2.07 ± 0.15.

For AGUAAGCAAUAUUACGGCAG, the “self-splicing fitness (ln)” value was -2.1 ± 0.16 (30 °C) and -1.53 ± 0.2 (37 °C).

As for UAAGAGCAAUAUUACGGAGU, the “self-splicing fitness (ln)” value runs as follows: (30 °C) -3.26 ± 0.23; (37 °C) -2.21 ± 0.25.

For GCGAAGCAAUAUUACGACCA, the “self-splicing fitness (ln)” value (30 °C) is -0.945 ± 0.21 and the “self-splicing fitness (ln)” value (37 °C) was -0.159 ± 0.38.

Consider ACGCAGCAAUAUUACGACCG, for which the “self-splicing fitness (ln)” value was -0.348 ± 0.15 (30 °C) and -0.0722 ± 0.19 (37 °C). On the same counts, the results for AGUGAGCAAUAUUACGGGCU are -4.57 ± 0.39 and -2.72 ± 0.3. The like results for GGCGAGCAAUAUUACGUUGG were, in that order, -3.75 ± 0.32 and -2.92 ± 0.35. Take AAGUAGCAAUAUUACGUCCG: the “self-splicing fitness (ln)” value runs as follows: (30 °C) -1.53 ± 0.14; (37 °C) -1.93 ± 0.14. For AGUAAGCAAUAUUACGGGGG, the “self-splicing fitness (ln)” value was -3.08 ± 0.22 (30 °C) and -2.87 ± 0.29 (37 °C). On the same counts, the results for UUGGAGCAAUAUUACGUUUU are -1.64 ± 0.19 and -2.55 ± 0.18. As to ACGGAGCAAUAUUACGCAGC, for the setting “30 °C”, the “self-splicing fitness (ln)” value was -3.02 ± 0.3.

For the sequence GUGAAGCAAUAUUACGCUAU, the “self-splicing fitness (ln)” value (30 °C) is -1.95 ± 0.15 and the “self-splicing fitness (ln)” value (37 °C) is -0.0655 ± 0.15. The like results for GGUCAGCAAUAUUACGACUA were, in that order, 0.124 ± 0.092 and 0.866 ± 0.13. On the same counts, the results for ACACAGCAAUAUUACGGAGC are -2.36 ± 0.13 and -1.52 ± 0.12. Regarding GGCUAGCAAUAUUACGUCUC, the “self-splicing fitness (ln)” value (30 °C) is -0.325 ± 0.094 and the “self-splicing fitness (ln)” value (37 °C) is -0.0256 ± 0.11.

On to UAAUAGCAAUAUUACGGGAG, for which the “self-splicing fitness (ln)” value runs as follows: (30 °C) -2.84 ± 0.17; (37 °C) -3.3 ± 0.22. As to CUCGAGCAAUAUUACGCUAA, under “37 °C”, the “self-splicing fitness (ln)” value is -2.34 ± 0.36. As to GGAGAGCAAUAUUACGACCA, the “self-splicing fitness (ln)” value is, setting by setting: (30 °C) -2.28 ± 0.21; (37 °C) -1.92 ± 0.27. On the same counts, the results for UCCCAGCAAUAUUACGUCGC are -3.47 ± 0.27 and -2.4 ± 0.22. Consider GUGUAGCAAUAUUACGACGC, for which the “self-splicing fitness (ln)” value (30 °C) was -1.8 ± 0.18 and the “self-splicing fitness (ln)” value (37 °C) was -0.0871 ± 0.22. As for AUUAAGCAAUAUUACGCCAA, the “self-splicing fitness (ln)” value runs as follows: (30 °C) -0.955 ± 0.21; (37 °C) -1.59 ± 0.25. Take ACUAAGCAAUAUUACGCAGG: the “self-splicing fitness (ln)” value (30 °C) was -2.02 ± 0.088 and the “self-splicing fitness (ln)” value (37 °C) is -0.927 ± 0.092.

With CCAAAGCAAUAUUACGAGAU, the “self-splicing fitness (ln)” value is -3.13 ± 0.2 (30 °C) and -2.5 ± 0.23 (37 °C). The like results for UACGAGCAAUAUUACGUUAG were, in that order, -3.03 ± 0.17 and -2.32 ± 0.19. On the same counts, the results for GAUGAGCAAUAUUACGCAUA are -2.68 ± 0.21 and -1.98 ± 0.21. On to UACCAGCAAUAUUACGAUGG, for which the “self-splicing fitness (ln)” value (30 °C) is -3.01 ± 0.11 and the “self-splicing fitness (ln)” value (37 °C) is -1.25 ± 0.091. On the same counts, the results for GUAUAGCAAUAUUACGCGCG are -1.55 ± 0.14 and -0.678 ± 0.15. The like results for AAUCAGCAAUAUUACGGUAU were, in that order, 0.192 ± 0.063 and 0.705 ± 0.088. The like results for UUAUAGCAAUAUUACGCGAU were, in that order, -2.8 ± 0.37 and -2.23 ± 0.46. For CCCAAGCAAUAUUACGGACU, the “self-splicing fitness (ln)” value is -3.92 ± 0.26 (30 °C) and -2.6 ± 0.18 (37 °C). The like results for GGGUAGCAAUAUUACGGACA were, in that order, -0.93 ± 0.093 and -0.223 ± 0.097. With UUCAAGCAAUAUUACGCAAA, the “self-splicing fitness (ln)” value (30 °C) is -1.96 ± 0.16 and the “self-splicing fitness (ln)” value (37 °C) is -0.991 ± 0.15.

Consider UAGCAGCAAUAUUACGGGCG, for which the “self-splicing fitness (ln)” value (30 °C) is -0.609 ± 0.065 and the “self-splicing fitness (ln)” value (37 °C) is -0.24 ± 0.087. For the sequence AAGCAGCAAUAUUACGACCG, the “self-splicing fitness (ln)” value is -1.19 ± 0.099 (30 °C) and -0.552 ± 0.15 (37 °C). Regarding UACCAGCAAUAUUACGACUG, the “self-splicing fitness (ln)” value by setting is: (30 °C) -4.48 ± 0.39; (37 °C) -3.05 ± 0.25. GUCGAGCAAUAUUACGAGCU: under “30 °C”, the “self-splicing fitness (ln)” value was -2 ± 0.42.

Regarding ACAUAGCAAUAUUACGGGGA, the “self-splicing fitness (ln)” value runs as follows: (30 °C) -2.65 ± 0.29; (37 °C) -1.92 ± 0.19. Take CGUCAGCAAUAUUACGGUGU: the “self-splicing fitness (ln)” value (30 °C) was -2.66 ± 0.12 and the “self-splicing fitness (ln)” value (37 °C) was -0.454 ± 0.1. The like results for AGCCAGCAAUAUUACGGUGA were, in that order, -1.82 ± 0.091 and -1.2 ± 0.089. CUCCAGCAAUAUUACGGCAU: under “37 °C”, the “self-splicing fitness (ln)” value is -2.56 ± 0.39.

For the sequence UGGUAGCAAUAUUACGUGCA, the “self-splicing fitness (ln)” value by setting is: (30 °C) -0.653 ± 0.11; (37 °C) -1.27 ± 0.1. On the same counts, the results for GUACAGCAAUAUUACGAUGU are -1.33 ± 0.081 and 0.106 ± 0.088.
